Biological target: T1, calf thymus DNA polymerase δ (two-subunit form) (bovine (endogenous in calf thymus), UniProt P28339 1-1106; P49004 1-469)
T1 construct: DNA polymerase δ larger, catalytic subunit p125, calf thymus (bovine); DNA polymerase δ smaller subunit p50, calf thymus (bovine); all experiments used the two-subunit form (p125 and p50); also called pol δ; calf thymus pol δ; source: purified from calf thymus (to apparent homogeneity)
Test: native gel or EMSA; nondenaturing PAGE band mobility shift of 32P-labelled 30-21-mer template-primer (0.1 pmol) with 10 ng pol δ and 70 ng PCNA; without MgCl2, 3 mM EDTA in incubation and gel buffer; essentially qualitative; the complex holds DNA as well
Conditions: both partners purified

T1 sequence (P28339 whole entry, stated change not applied, chain 1 of 2): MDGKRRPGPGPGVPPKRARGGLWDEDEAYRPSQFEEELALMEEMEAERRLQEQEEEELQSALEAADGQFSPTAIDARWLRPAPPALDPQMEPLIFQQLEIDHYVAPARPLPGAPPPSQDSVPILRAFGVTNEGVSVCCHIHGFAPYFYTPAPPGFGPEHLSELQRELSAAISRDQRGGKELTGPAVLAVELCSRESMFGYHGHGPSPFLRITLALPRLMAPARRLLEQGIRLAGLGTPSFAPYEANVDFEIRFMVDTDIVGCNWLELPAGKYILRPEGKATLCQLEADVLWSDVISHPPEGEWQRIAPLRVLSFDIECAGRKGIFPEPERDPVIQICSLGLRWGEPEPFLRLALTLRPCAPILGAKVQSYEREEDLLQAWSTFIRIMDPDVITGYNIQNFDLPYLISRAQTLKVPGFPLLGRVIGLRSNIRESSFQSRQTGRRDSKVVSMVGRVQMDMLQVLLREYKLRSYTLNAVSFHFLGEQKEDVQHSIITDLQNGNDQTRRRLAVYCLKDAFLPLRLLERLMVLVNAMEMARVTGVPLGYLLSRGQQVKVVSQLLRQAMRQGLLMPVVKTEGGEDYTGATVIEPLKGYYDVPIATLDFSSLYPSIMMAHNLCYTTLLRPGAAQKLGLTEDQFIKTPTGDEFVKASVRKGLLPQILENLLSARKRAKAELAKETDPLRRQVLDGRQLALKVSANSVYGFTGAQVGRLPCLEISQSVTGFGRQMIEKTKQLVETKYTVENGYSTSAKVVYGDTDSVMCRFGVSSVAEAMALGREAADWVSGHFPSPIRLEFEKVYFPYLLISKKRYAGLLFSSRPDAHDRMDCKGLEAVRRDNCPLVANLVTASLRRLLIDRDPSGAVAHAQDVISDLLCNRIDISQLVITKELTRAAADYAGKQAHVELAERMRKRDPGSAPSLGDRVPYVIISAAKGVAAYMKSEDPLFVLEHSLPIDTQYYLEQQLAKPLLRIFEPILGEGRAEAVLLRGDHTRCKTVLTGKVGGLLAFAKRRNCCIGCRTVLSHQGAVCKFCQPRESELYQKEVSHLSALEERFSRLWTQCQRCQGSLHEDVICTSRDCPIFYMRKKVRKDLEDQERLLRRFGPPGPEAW
T1 sequence (P49004 whole entry, stated change not applied, chain 2 of 2): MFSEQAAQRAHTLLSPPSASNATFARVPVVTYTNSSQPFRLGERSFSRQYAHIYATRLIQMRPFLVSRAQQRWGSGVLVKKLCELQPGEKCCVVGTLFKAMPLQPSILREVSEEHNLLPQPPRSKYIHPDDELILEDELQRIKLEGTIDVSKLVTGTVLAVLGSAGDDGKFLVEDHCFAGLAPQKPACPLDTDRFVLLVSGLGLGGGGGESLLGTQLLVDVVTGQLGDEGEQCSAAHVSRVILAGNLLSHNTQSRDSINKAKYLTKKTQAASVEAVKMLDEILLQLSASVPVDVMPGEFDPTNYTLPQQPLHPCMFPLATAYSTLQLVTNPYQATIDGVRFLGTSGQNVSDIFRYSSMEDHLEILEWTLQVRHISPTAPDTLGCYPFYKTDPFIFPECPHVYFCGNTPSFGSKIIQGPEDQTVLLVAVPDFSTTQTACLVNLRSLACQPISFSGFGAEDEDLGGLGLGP

binding result	Binder
binds	NH2-terminally his-tagged Drosophila PCNA with amino acids 119-133 replaced by the corresponding human sequence (other, Drosophila melanogaster | human, UniProt P17917 1-118, looked up, PCNA, Drosophila melanogaster, the stretch before the interdomain connector loop (up to residue 118); PCNA, Drosophila melanogaster, the stretch after the interdomain connector loop (from residue 134); source: E. coli M15 [pREP4], purified (Ni2+-IDA Sepharose); not shown: His tag, N-terminal, kept) MFEARLGQATILKKILDAIKDLLNEATFDCSDSGIQLQAMDNSHVSLVSLTLRSDGFDKFRCDRNLSMGMNLGSMAKILKCANNEDNVTMKAQDNADTVTIMFESANQEKVSDYEMKLMDLDVEQLGIPEQEYSCVVRMPAMEFARICRDLAQFSESVVICCTKEGVKFSASGDVGTANIKLAQTGSVDKEEEAVIIEMQEPVTLTFACRYLNAFTKATPLSTQVQLSMCADVPLVVEYAIKDLGHIRYYLAPKIEDNET
binds	NH2-terminally his-tagged Drosophila PCNA with glutamine 123 mutated to valine (natural protein, Drosophila melanogaster, UniProt P17917 1-260, looked up, proliferating cell nuclear antigen (PCNA), Drosophila melanogaster, with Q123V; also called Q123V dPCNA; Q123V; source: E. coli M15 [pREP4], purified (Ni2+-IDA Sepharose); not shown: His tag, N-terminal, kept) MFEARLGQATILKKILDAIKDLLNEATFDCSDSGIQLQAMDNSHVSLVSLTLRSDGFDKFRCDRNLSMGMNLGSMAKILKCANNEDNVTMKAQDNADTVTIMFESANQEKVSDYEMKLMNLDVEHLGIPETDFSCVVRMPAMEFARICRDLAQFSESVVICCTKEGVKFSASGDVGTANIKLAQTGSVDKEEEAVIIEMQEPVTLTFACRYLNAFTKATPLSTQVQLSMCADVPLVVEYAIKDLGHIRYYLAPKIEDNET

From paper PMC515284, “Site-specific mutagenesis of Drosophila proliferating cell nuclear antigen enhances its effects on calf thymus DNA polymerase δ” (BMC Biochemistry, 2004)
